Assay results as given in USRE43497.

Key:
Experiment in all cases: cell-based or functional assay
[1] = target: Jab1-AD (GAL4 activation domain fusion with human p38^Jab1 amino acids 20-335) (human) (UniProt Q92905)
[2] = target: GAL4-AD (UniProt P04386)
[3] = target: SV40-AD

Sequence of Jab1-AD (GAL4 activation domain fusion with human p38^Jab1 amino acids 20-335) (human) (Q92905 20-334 limits assumed): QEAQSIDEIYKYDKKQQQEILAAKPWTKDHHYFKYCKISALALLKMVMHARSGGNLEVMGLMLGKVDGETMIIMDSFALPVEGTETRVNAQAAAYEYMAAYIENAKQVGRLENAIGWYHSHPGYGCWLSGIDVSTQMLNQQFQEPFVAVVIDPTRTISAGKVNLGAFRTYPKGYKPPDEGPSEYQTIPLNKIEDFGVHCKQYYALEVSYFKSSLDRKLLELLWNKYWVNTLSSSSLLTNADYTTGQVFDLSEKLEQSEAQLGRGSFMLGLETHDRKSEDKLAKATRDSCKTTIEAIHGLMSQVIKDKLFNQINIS
Sequence of GAL4-AD (P04386 768-881 limits assumed): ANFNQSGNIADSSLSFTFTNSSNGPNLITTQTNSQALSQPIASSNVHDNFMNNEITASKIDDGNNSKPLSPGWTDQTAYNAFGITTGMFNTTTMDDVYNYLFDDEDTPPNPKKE

| beta-galactosidase activity, liquid media assay (yeast two-hybrid) [1] [Miller units] | beta-galactosidase activity, liquid media assay (yeast two-hybrid) [2] [Miller units] | Substance | beta-galactosidase activity, liquid media assay (yeast two-hybrid) [3] [Miller units] |
| --- | --- | --- | --- |
| 0.3 | 0.1 | GAL4-BD (from UniProt P04386 1-147) |  |
|  |  | p53-BD | 99 |
